Assay results from patent US6426335, “Vascular endothelial growth factor (VEGF) nucleic acid ligand complexes” (Gilead Sciences, Inc.).

B1: NX213 (mixed)
mixed: TTTTACCCUGAUGGUAGACGCCGGGGUGTTTTT
modifications: PS DNA T at 1-4 and 29-33; 2'-OMe at 5,13,16,17,20,23-26,28; 2'-NH2 at 6-9,12,15,19,21,22,27

Experiments:
[1] = biological target: T1, VEGF165 (Homo sapiens, UniProt P15692-4 P15692-4:27-191); experiment: filter; 37C; Ca2+ dependent; details: tags: R&D Systems carrier-free, expressed in Sf21 insect cells; chain copies: homodimer (inferred)
Procedure: (§1) Nucleic Acid Ligands radiolabeled during transcription by incorporation of α-[^32P]-labeled NTPs, or after synthesis using γ-[^32P]-ATP and T4 polynucleotide kinase, were incubated in low concentration (between 20 and 71 pM) with varying concentrations of VEGF or other growth factors at 37° C. for 15 minutes. Incubations were in TBS, PBS, or HEPES-buffered saline (HBS), pH 7.4, with or without the addition of supplemental divalent cations. Samples were passed through prewashed 0.45μ Type HA filters (Millipore) followed by a 5–10 ml wash with binding buffer. Filters were immersed in scintillant and counted to quantitate the amount of protein-bound RNA retained by each filter. The equilibrium dissociation constant (K_D) of Nucleic Acid Ligand binding to a specific protein was calculated from the data points as described in Green et al. (1996) Biochem. 35:14413–14424.

[2] = biological target: T1, VEGF165; experiment: filter; 37C; details: tags: R&D Systems carrier-free, expressed in Sf21 insect cells; chain copies: homodimer (inferred)
Procedure: as §1

[3] = biological target: T1, VEGF165; experiment: EMSA; competition EMSA; apparent affinity; VEGF isoform not stated; details: tags: R&D Systems carrier-free, expressed in Sf21 insect cells; chain copies: homodimer (inferred)
Procedure: The binding affinities of the unmodified Nucleic Acid Ligand (NX213, open circle), its dialkyl glycerol modified analog (NX278, open diamond) and liposomal NX278 (NX278-L, open square), along with the sequence scrambled (sc) controls (scNX213, closed circle; scNX278, closed diamond; and scNX278-L, closed square) were determined by a competition electrophoreticmobility shift assay. NX213 is 5'-TsTsTsTs mAaCaC aCaUrG rAaUmG rGaUmA mGrAaC mGaCaC mGmGmG mGaUmG TsTsTsTsT-3' and scNX213 is (SEQ ID NO:1) 5'-TsTsTsTs mGaUaC mGmGaU mAaCrG mGrAmG aUmGrG rAaCnC mGaUaC mAaCmG TsTsTsTsT-3' (SEQ ID NO:4) ^32P 5=end-labeled NX-213 (1.5 nM) was incubated in binding buffer (phosphate buffered saline with 0.01% human serum albumin) at 37° C. for 20 min in the presence of VEGF (0.33 nM) and competitor oligonucleotide(5 pM-0.33 µM). The ^32p NX-213/VEGF complex was resolved from the free ^32p NX-213 by electrophoresison 8% polyacrylamide gel (19:1 acrylamide:bisacrylamide, Tris-borate, 89 mM, 1 mM EDTA as the running buffer). The intensity of the band corresponding to ^32P NX-213/VEGF complex at varying competitor concentrations was quantitated by phosphorimager analysis. Data normalized for the amount of complex formed in the absence of competitor were fitted by the least squares method to the competition binding equation. […]

[4] = biological target: T1, VEGF165; experiment: described previously, quoted for comparison; details: tags: R&D Systems carrier-free, expressed in Sf21 insect cells; chain copies: homodimer (inferred); label: 32P 5' end

T1 sequence (P15692 other isoform, or with tags, fused parts or gaps): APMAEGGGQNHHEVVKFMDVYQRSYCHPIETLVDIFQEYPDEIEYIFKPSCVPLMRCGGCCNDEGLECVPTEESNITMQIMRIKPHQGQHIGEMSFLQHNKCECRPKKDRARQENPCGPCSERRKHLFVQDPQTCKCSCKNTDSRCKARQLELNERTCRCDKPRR

Binder	Kd [2] [nM]	also measured
GCGGAAUCAGUGAAUGCUUAUACAUCCGCT (ssRNA, 2'-F pyrimidines; 3'-3' dT cap (N30) [30 (3'-3' dT cap); all C/U 2'-F]) [t44]	–	Kd [1]: 0.01 nM
GAACCGAUGGAAUUUUUGGACGCUCT (ssRNA, 2'-F pyrimidines; 3'-3' dT cap (N26) [26 (3'-3' dT cap); all C/U 2'-F]) [t2c]	0.2	–
TTTTACCCUGAUGGUAGACGCCGGGGUGTTTTT (mixed, as NX278, embedded in DSPC:cholesterol liposome) [NX278-Liposome]	–	binding signal [3]: 3 fold lower than NX278
B1	–	Kd [4]: 0.14 nM
GAAUCAGUGAAUGCUUAUACAUCT (ssRNA, 2'-F pyrimidines; 3'-3' dT cap (N24) [24 (3'-3' dT cap); all C/U 2'-F]) [t44c]	2	–
AACCGAUGGAAUUUUUGGACGCUT (ssRNA, 2'-F pyrimidines; 3'-3' dT cap (N24) [24 (3'-3' dT cap); all C/U 2'-F]) [t2d]	20	–
